Test results published in patent US20240343803A1 (SHANDONG SIMCERE BIOPHARMACEUTICAL, published 2024).

Key:
[1] = molecular target: T1, Fusion protein of extracellular domain of human TIGIT and His-tag (human TIGIT ECD-his) (human); assay: BIAcore; KD ratio to TIGIT-CHI-006
T1 chain: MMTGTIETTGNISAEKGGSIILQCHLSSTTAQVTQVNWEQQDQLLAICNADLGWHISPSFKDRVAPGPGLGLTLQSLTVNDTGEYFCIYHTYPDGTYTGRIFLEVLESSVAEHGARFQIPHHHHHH

[2] = molecular target: T2, human PVRIG-mFc protein (Acro, PVG-H5253) (human, UniProt Q6DKI7 41-171, limits assumed); assay: competition FACS; blocked: human PVRIG-mFc binding to CHO-K1-CD112 cells
T2 construct: bought reagent; also called PVRIG-ECD-mFc
T2 sequence (looked up): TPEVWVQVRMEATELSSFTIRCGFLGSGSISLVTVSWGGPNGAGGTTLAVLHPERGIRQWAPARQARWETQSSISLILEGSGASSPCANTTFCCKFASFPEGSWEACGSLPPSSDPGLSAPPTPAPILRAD
Method in brief: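 CHO-K1-CD112 cells stained with Zombie violet were added to the mixture for another 30 min at 4° C, and bound PVRIG-mFc was detected with PE goat anti-mouse IgG Fc (1:250) as mean fluorescence intensity on a BD Canto II. IC50 values were read off the resulting competition curve.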

[3] = molecular target: T3, full-length cynomolgus monkey TIGIT on CHO-K1 cells (CHO-K1 cynomolgus monkey TIGIT) (cynomolgus monkey); assay: FACS
T3 construct: NCBI XP_015300911.1; also called cynomolgus monkey TIGIT cells
Protocol: The collected cells were washed once with PBS (Hyclone, CAT #SH30256), resuspended to 2×10⁵/50 μL with 1% BSA-PBS. The antibodies were diluted to 80 nM with 1% BSA-PBS (diluted by 3-fold serial dilution for 12 concentration points). The 50 μL cells were then mixed with 50 μL diluted antibodies, and then incubated at 4° C. for 60 minutes. […] After washing twice with PBS, the cell samples were resuspended with 1% BSA-PBS, 100 μL/well and then analyzed by flow cytometry (BD, Canto II). […] [0298] (c) The effect of anti-TIGIT chimeric antibodies blocking the interaction between Bio-CD155-His and CHO-K1 human TIGIT high expression cell strains detected by FACS

[4] = molecular target: T4, full-length human TIGIT on CHO-K1 cells (CHO-K1 human TIGIT) (human, UniProt Q495A1 22-244); assay: FACS, CHO-K1 human TIGIT low expression strain
T4 construct: NCBI XP_024309156.1; entry includes the signal peptide; also called high expression strain 1D2; medium expression strain 2D10
T4 sequence: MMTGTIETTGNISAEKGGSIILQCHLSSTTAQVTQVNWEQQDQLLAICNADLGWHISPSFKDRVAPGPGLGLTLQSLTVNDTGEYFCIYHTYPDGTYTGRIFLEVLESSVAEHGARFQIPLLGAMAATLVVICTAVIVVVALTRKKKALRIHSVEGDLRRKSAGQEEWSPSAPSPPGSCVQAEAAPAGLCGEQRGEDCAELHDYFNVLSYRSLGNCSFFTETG
Protocol: The collected cells were washed once with PBS (Hyclone, Cat NO. SH30256), resuspended to 2×10⁵/50 μL with 1% BSA-PBS. The antibodies were diluted to 80 nM with 1% BSA-PBS (diluted by 3-fold serial dilution for 12 concentration points). The 50 μL cells were then mixed with 50 μL diluted antibodies, and then incubated at 4° C. for 60 minutes. […] After washing twice with PBS, the cell samples were resuspended with 1% BSA-PBS, 100 μL/well and then analyzed by flow cytometry (BD, Canto II).

[5] = molecular target: T5, human TIGIT ECD-mFc (fusion protein of extracellular domain of human TIGIT and mouse IgG2a Fc fragment) (human); assay: competition cell ELISA; blocked: TIGIT ECD-mFc binding to CHO-K1 CD155 cells
T5 chain: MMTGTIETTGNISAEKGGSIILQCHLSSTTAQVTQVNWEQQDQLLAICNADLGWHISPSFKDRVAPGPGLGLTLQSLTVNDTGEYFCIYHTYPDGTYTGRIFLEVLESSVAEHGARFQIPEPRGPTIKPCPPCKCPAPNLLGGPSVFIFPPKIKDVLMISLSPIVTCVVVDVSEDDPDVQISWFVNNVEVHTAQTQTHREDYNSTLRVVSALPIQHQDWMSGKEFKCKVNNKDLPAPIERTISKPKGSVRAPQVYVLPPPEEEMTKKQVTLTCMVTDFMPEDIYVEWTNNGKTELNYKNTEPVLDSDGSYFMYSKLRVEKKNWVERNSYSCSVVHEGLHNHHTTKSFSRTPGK
Protocol: After discarding the culture supernatant, the cells were fixed with a cell fixation solution (Beyotime, P0098), 50 μL/well, at room temperature for 1 hour. After washing once with 0.05% Tween 20-PBS on the Microplate Washer, the plate was added with 5% skim milk powder-PBS, 250 μL/well, and incubated at 37° C. for 2-4 hours. The plate was then washed 3 times with 0.05% Tween 20-PBS on the Microplate Washer. The sample were mixed with human TIGIT ECD-mFc (working concentration: 100 ng/mL) and incubated for 0.5 hour. The mixed solution of antigen and antibody was added to the cell plate (50 μL/well). The cells were incubated with the mixture at 37° C. for 1.5-2 hours and then washed with 0.05% Tween 20-PBS for 3 times on the Microplate Washer. […] After washing 3 times with 0.05% Tween 20-PBS on the Microplate Washer, the plate was added with TMB chromogenic solution (KPL, 52-00-03), 50 μL/well, and incubated at 37° C. for 10 minutes. 1M HCL, 50 µL/well, was then added into the plate to terminate the reaction, and the OD450 nm was read by a microplate reader (Biotek, Powerwave HT).

T3 sequence (chain, as listed by the source limits assumed): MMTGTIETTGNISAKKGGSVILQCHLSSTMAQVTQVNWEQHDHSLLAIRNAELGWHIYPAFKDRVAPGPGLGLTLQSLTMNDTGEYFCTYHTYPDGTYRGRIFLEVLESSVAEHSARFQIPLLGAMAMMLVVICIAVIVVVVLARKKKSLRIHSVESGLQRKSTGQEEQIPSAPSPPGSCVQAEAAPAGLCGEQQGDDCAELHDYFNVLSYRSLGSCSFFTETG

B1: TIGIT-006-H5L3 (antibody, V domains shown)
VH: EVQLQESGPGLVKPSETLSLTCAVSGYSMTSDYWNWIRQPPGKKLEYIGYISYSGRTYYNPSLKSRVTISRDTSKNQFSLKLSSVTAADTAVYYCARGDYSNYGGAMYDWGQGTTVTVSS
VL: DIVMTQSPDSLAVSLGERATINCRASQGVSTTIAWYQQKPGQSPKLLIYSASYRYTGVPRFSGSGSGTDFTLTISSLQAEDVAVYYCQQYYSSPFTFGGGTKVEIK
notes: Humanized anti-TIGIT antibody
- Fold change vs chimeric antibodies (KD) [1]: 0.83 fold

B2: SRF813-hIgG1 (antibody, V domains shown)
VH: QVQLVQSGAEVKKPGSSVKVSCKASGGTFSSAAISWVRQAPGQGLEWMGNIIPIVGIANYAQKFQGRVTITADESTSTAYMELSSLRSEDTAVYYCARDTGRGYTRHFWFDPWGQGTLVTVSS
VL: DIQMTQSPSSLSASVGDRVTITCRASQSISSYLNWYQQKPGKAPKLLIYAASSLQSGVPSRFSGSGSGTDFTLTISSLQPEDFATYYCQQSDILYTFGGGTKVEIK
notes: human IgG1 format by its name
- IC50 (read off the curve) [2]: ~1 nM

B3: RG6058-hIgG1 (antibody, V domains shown)
VH: EVQLQQSGPGLVKPSQTLSLTCAISGDSVSSNSAAWNWIRQSPSRGLEWLGKTYYRFKWYSDYAVSVKGRITINPDTSKNQFSLQLNSVTPEDTAVFYCTRESTTYDLLAGPFDYWGQGTLVTVSS
VL: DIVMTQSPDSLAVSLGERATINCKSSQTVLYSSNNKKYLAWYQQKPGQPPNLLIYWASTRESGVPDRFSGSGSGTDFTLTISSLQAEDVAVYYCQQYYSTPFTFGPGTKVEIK
notes: human IgG1 format by its name; also called Roche RG6058; control antibody RG6058
- EC50 [3]: 0.0509 nM
- EC50 (read off the curve) [4]: ~0.4 nM
- IC50 (read off the curve) [5]: ~0.6 nM
